Structures can show the parent of a compound that is named as a salt.
Experiments:
ΔPDZ P2RY12 = ΔPDZ P2RY12 (Homo sapiens, UniProt Q9H244); assay: Label-free DMR agonist response, HEK293T expressing ΔPDZ P2RY12; assay type: cell-based
ΔPDZ P2RY1 = ΔPDZ P2RY1 (Homo sapiens, UniProt P47900); assay: Label-free DMR agonist response, HEK293T expressing ΔPDZ P2RY1; assay type: cell-based
WT P2RY1 = WT P2RY1 (Homo sapiens, UniProt P47900); assay: Label-free DMR agonist response, HEK293T expressing WT P2RY1; assay type: cell-based
WT P2RY1, sequence (P47900 whole entry): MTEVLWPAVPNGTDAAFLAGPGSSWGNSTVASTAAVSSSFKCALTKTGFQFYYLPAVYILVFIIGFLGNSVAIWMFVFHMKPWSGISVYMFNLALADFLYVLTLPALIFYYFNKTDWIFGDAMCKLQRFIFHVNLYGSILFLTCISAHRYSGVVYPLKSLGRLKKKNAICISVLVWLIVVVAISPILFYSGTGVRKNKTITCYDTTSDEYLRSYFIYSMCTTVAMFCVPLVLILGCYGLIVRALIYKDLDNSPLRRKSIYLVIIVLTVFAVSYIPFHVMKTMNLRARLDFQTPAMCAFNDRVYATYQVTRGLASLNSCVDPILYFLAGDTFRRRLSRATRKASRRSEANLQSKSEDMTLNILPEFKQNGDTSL

WT P2RY12 = WT P2RY12 (Homo sapiens, UniProt Q9H244); assay: Label-free DMR agonist response, HEK293T expressing WT P2RY12; assay type: cell-based
WT P2RY12, sequence (Q9H244 whole entry, one chain of several): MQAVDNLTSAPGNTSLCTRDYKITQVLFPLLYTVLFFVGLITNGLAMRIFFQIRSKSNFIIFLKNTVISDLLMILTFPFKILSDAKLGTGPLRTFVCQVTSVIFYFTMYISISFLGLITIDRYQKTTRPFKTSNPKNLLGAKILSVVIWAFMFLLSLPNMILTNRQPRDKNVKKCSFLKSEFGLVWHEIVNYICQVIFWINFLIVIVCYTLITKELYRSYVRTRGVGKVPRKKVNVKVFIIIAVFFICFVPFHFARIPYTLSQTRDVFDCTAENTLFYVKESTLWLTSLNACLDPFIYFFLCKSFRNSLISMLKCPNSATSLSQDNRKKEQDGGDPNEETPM

ΔPDZ CXCR1 = target: T1, ΔPDZ CXCR1 (Homo sapiens, UniProt P25024); assay: Label-free DMR agonist response, HEK293T expressing ΔPDZ CXCR1; assay type: cell-based
T1 sequence (P25024 1-346 limits assumed): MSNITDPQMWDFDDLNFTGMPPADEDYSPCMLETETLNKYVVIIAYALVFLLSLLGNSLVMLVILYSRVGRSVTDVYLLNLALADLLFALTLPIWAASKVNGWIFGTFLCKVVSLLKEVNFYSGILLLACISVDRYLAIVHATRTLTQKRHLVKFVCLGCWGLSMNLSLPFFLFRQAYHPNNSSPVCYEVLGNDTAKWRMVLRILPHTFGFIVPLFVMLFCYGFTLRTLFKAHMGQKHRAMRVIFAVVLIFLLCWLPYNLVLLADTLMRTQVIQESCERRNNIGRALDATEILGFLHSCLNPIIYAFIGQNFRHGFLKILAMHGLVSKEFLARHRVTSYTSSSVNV

WT CXCR1 = target: T2, WT CXCR1 (Homo sapiens, UniProt P25024); assay: Label-free DMR agonist response, HEK293T expressing WT CXCR1; assay type: cell-based
T2 sequence (P25024 1-350): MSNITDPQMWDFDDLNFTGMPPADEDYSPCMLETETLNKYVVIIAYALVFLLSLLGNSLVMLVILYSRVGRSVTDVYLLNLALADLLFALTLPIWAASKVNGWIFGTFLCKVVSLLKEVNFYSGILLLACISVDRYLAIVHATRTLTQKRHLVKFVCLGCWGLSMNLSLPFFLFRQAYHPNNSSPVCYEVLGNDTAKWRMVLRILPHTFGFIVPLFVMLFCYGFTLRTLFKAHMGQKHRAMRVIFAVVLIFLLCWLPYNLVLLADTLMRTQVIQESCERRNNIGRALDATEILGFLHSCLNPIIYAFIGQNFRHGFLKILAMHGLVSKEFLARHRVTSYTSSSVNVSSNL

ΔPDZ CXCR3 = target: T3, ΔPDZ CXCR3 (Homo sapiens, UniProt P49682); assay: Label-free DMR agonist response, HEK293T expressing ΔPDZ CXCR3; assay type: cell-based
T3 sequence (P49682 1-364 limits assumed): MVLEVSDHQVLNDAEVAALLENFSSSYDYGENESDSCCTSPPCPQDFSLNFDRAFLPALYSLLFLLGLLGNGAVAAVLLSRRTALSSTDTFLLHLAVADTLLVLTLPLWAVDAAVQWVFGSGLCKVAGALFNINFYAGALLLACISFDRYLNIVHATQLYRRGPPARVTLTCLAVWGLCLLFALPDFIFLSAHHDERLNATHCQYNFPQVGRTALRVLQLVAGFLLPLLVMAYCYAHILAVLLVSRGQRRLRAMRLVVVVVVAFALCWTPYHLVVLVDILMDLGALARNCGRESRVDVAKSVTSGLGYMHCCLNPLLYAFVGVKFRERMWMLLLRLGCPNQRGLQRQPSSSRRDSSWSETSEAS

ΔPDZ CXCR5 = target: T4, ΔPDZ CXCR5 (Homo sapiens, UniProt P32302); assay: Label-free DMR agonist response, HEK293T expressing ΔPDZ CXCR5; assay type: cell-based
T4 sequence (P32302 1-368 limits assumed): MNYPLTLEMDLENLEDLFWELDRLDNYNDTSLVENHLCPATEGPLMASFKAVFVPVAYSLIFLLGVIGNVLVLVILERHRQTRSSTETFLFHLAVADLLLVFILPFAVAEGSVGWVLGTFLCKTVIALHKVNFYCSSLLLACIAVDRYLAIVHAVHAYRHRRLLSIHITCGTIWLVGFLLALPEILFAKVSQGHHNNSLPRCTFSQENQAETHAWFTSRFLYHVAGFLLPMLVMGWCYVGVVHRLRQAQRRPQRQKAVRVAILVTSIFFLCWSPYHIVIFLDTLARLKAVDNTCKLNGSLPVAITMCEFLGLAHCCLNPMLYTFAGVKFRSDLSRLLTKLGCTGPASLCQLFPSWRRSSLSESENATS

ΔPDZ CXCR2 = target: T5, ΔPDZ CXCR2 (Homo sapiens, UniProt P25025); assay: Label-free DMR agonist response, HEK293T expressing ΔPDZ CXCR2; assay type: cell-based
T5 sequence (P25025 1-356 limits assumed): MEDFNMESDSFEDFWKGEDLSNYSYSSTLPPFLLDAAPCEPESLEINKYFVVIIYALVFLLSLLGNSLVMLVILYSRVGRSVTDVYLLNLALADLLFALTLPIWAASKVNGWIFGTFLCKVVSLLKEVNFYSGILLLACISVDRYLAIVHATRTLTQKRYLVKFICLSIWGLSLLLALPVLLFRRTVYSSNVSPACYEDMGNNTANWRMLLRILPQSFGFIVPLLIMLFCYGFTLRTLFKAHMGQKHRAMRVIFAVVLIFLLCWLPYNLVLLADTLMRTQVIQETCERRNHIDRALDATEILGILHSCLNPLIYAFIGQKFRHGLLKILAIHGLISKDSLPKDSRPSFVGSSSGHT

WT CXCR5 = target: T6, WT CXCR5 (Homo sapiens, UniProt P32302); assay: Label-free DMR agonist response, HEK293T expressing WT CXCR5; assay type: cell-based
T6 sequence (P32302 1-372): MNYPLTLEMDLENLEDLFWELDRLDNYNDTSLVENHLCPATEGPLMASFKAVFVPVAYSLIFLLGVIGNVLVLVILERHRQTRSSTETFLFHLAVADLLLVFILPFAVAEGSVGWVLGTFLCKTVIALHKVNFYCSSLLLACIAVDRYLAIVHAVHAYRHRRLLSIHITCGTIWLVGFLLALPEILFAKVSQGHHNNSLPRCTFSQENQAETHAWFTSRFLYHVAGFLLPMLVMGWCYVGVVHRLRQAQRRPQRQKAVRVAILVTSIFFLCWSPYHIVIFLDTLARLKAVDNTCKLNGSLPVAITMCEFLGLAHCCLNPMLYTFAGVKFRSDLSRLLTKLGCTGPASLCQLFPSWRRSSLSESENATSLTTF

WT CXCR3 = target: T7, WT CXCR3 (Homo sapiens, UniProt P49682); assay: Label-free DMR agonist response, HEK293T expressing WT CXCR3; assay type: cell-based
T7 sequence (P49682 1-368): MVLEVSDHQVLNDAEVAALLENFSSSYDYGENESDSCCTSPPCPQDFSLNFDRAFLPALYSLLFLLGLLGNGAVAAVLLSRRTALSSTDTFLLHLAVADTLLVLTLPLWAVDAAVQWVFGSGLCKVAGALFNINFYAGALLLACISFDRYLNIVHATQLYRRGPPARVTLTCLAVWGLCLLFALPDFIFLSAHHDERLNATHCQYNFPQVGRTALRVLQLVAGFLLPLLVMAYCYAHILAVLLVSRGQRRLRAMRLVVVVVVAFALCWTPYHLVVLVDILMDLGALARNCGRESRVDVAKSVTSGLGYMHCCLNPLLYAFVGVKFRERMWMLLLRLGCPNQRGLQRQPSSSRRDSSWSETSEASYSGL

WT CXCR2 = target: T8, WT CXCR2 (Homo sapiens, UniProt P25025); assay: Label-free DMR agonist response, HEK293T expressing WT CXCR2; assay type: cell-based
T8 sequence (P25025 1-360): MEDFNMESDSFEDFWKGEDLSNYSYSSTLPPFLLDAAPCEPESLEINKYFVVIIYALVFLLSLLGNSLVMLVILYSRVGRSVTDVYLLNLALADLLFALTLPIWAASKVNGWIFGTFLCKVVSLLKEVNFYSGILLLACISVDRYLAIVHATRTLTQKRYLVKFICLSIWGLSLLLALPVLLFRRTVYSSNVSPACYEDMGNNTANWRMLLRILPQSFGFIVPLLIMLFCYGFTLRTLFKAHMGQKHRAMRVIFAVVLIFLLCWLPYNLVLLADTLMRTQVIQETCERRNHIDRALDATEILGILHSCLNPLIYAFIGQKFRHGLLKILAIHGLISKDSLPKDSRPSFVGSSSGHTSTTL

WT HRH3 = WT HRH3 (Homo sapiens, UniProt Q9Y5N1); conditions: HEK293T
WT HRH3, sequence (Q9Y5N1 1-453 isoform Q9Y5N1-2): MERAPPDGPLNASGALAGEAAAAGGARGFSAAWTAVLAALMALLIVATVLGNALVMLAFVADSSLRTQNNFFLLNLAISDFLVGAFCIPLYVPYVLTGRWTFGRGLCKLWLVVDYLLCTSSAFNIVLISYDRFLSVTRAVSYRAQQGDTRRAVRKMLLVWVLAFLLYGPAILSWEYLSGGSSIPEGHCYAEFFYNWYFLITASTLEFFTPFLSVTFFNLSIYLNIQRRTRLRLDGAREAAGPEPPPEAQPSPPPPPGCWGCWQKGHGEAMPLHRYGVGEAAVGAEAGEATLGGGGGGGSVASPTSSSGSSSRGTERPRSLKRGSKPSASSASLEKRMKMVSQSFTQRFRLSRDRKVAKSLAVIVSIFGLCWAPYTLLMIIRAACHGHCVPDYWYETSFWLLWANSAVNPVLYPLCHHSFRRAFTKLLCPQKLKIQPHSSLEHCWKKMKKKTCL

ΔPDZ HRH3 = ΔPDZ HRH3 (Homo sapiens, UniProt Q9Y5N1); conditions: HEK293T
ΔPDZ HRH3, sequence (Q9Y5N1 1-449 isoform Q9Y5N1-2): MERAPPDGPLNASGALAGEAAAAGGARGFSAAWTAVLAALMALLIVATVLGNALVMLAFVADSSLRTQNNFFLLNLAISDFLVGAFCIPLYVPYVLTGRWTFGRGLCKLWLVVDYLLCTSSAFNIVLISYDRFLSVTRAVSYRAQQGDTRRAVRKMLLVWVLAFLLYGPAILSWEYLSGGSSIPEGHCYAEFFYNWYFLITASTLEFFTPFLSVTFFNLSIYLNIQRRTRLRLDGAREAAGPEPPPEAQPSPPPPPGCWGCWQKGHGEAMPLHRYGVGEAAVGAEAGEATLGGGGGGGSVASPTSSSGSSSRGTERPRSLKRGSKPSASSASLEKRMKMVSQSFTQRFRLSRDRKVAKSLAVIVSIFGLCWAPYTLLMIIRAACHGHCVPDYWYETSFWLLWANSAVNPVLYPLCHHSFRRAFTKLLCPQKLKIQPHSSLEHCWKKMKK

ΔPDZ P2RY1, sequence (P47900 1-369 limits assumed, stated change not applied): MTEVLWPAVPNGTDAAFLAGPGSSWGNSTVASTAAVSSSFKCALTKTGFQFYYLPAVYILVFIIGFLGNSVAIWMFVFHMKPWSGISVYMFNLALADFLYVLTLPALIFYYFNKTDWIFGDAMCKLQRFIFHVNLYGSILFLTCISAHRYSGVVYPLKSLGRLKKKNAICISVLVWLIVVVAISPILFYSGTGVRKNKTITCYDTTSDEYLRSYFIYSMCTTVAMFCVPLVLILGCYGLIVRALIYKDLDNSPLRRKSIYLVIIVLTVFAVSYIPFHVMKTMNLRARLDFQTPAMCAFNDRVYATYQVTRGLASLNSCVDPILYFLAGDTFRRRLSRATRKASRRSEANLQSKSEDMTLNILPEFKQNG
ΔPDZ P2RY12, sequence (Q9H244 1-338 limits assumed, stated change not applied, one chain of several): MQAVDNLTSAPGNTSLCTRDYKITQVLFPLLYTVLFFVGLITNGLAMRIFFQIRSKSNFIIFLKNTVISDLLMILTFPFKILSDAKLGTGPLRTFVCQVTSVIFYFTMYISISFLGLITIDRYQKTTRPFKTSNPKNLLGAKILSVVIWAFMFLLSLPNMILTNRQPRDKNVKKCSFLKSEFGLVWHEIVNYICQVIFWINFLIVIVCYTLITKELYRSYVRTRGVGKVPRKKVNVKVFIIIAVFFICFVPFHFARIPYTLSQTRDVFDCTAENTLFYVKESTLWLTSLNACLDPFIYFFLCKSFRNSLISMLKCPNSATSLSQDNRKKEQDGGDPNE

O=c1ccn([C@@H]2O[C@H](COP(=O)(O)OP(=O)(O)OP(=O)(O)O)[C@@H](O)[C@H]2O)c(=O)[nH]1 [UTP]
ΔPDZ pEC50 (ΔPDZ P2RY12; ΔPDZ P2RY12, DMR CRC): −5.70 ± 0.08 | ΔPDZ Max (DMR) (ΔPDZ P2RY12; ΔPDZ P2RY12, maximal agonist DMR response): 192.60 ± 6.35 | ΔPDZ TTP (ΔPDZ P2RY12; ΔPDZ P2RY12, time to peak DMR): 5.20 s | ΔPDZ pEC50 (ΔPDZ P2RY1; ΔPDZ P2RY1, DMR CRC): −5.69 ± 0.19 | ΔPDZ Max (DMR) (ΔPDZ P2RY1; ΔPDZ P2RY1, maximal agonist DMR response): 118.68 ± 10.27 | ΔPDZ TTP (ΔPDZ P2RY1; ΔPDZ P2RY1, time to peak DMR): 5.27 s | WT pEC50 (WT P2RY1; HEK293T, WT P2RY1, DMR CRC): −5.39 ± 0.15 | WT Max (DMR) (WT P2RY1; HEK293T, WT P2RY1, maximal agonist DMR response): 116.19 ± 2.22 | WT TTP (WT P2RY1; HEK293T, WT P2RY1, time to peak DMR): 4.87 s | Agonist potency (in words) (WT P2RY1; P2Y receptors (P2RY1), DMR): micromolar | WT pEC50 (WT P2RY12; HEK293T, WT P2RY12, DMR CRC): −5.47 ± 0.07 | WT Max (DMR) (WT P2RY12; HEK293T, WT P2RY12, maximal agonist DMR response): 170.04 ± 2.93 | WT TTP (WT P2RY12; HEK293T, WT P2RY12, time to peak DMR): 5.40 s | Agonist potency (in words) (WT P2RY12; P2Y receptors (P2RY12), DMR): micromolar

interleukin-8
ΔPDZ pEC50 (ΔPDZ CXCR1; ΔPDZ CXCR1, DMR CRC): −7.08 ± 0.45 | ΔPDZ Max (DMR) (ΔPDZ CXCR1; ΔPDZ CXCR1, maximal agonist DMR response): 9.48 ± 1.53 | ΔPDZ TTP (ΔPDZ CXCR1; ΔPDZ CXCR1, time to peak DMR): 3.80 s | WT pEC50 (WT CXCR1; WT CXCR1, DMR CRC): −8.29 ± 0.07 | WT Max (DMR) (WT CXCR1; WT CXCR1, maximal agonist DMR response): 69.69 ± 1.88 | WT TTP (WT CXCR1; WT CXCR1, time to peak DMR): 3.60 s | ΔPDZ Max (DMR) (ΔPDZ CXCR3; ΔPDZ CXCR3, maximal agonist DMR response): 18.3 ± 3.16 | ΔPDZ TTP (ΔPDZ CXCR3; ΔPDZ CXCR3, time to peak DMR): 15.60 s | ΔPDZ pEC50 (ΔPDZ CXCR5; ΔPDZ CXCR5, DMR CRC): −9.97 ± 0.12 | ΔPDZ Max (DMR) (ΔPDZ CXCR5; ΔPDZ CXCR5, maximal agonist DMR response): 40.70 ± 2.54 | ΔPDZ TTP (ΔPDZ CXCR5; ΔPDZ CXCR5, time to peak DMR): 2.30 s | ΔPDZ pEC50 (ΔPDZ CXCR2; ΔPDZ CXCR2, DMR CRC): −8.45 ± 0.13 | ΔPDZ Max (DMR) (ΔPDZ CXCR2; ΔPDZ CXCR2, maximal agonist DMR response): 37.50 ± 2.20 | ΔPDZ TTP (ΔPDZ CXCR2; ΔPDZ CXCR2, time to peak DMR): 3.50 s | WT pEC50 (WT CXCR5; WT CXCR5, DMR CRC): −10.34 ± 0.16 | WT Max (DMR) (WT CXCR5; WT CXCR5, maximal agonist DMR response): 23.22 ± 1.80 | WT TTP (WT CXCR5; WT CXCR5, time to peak DMR): 2.50 s | WT Max (DMR) (WT CXCR3; WT CXCR3, maximal agonist DMR response): 10.17 ± 2.00 | WT TTP (WT CXCR3; WT CXCR3, time to peak DMR): 11.70 s | WT pEC50 (WT CXCR2; WT CXCR2, DMR CRC): −8.53 ± 0.11 | WT Max (DMR) (WT CXCR2; WT CXCR2, maximal agonist DMR response): 34.89 ± 2.08 | WT TTP (WT CXCR2; WT CXCR2, time to peak DMR): 3.20 s

NCCc1c[nH]cn1 [Histamine, histamine dihydrochloride]
WT Max (DMR) (WT HRH3; WT HRH3, maximal agonist DMR response): 46.97 ± 3.71 | WT TTP (WT HRH3; WT HRH3, time to peak DMR): 7.30 s | ΔPDZ Max (DMR) (ΔPDZ HRH3; ΔPDZ HRH3, maximal agonist DMR response): 60.19 ± 5.07 | ΔPDZ TTP (ΔPDZ HRH3; ΔPDZ HRH3, time to peak DMR): 6.30 s

Reference: article PMC4775402 (Pharmacological research, 2016)
